This note sets out measurements from article doi:10.1101/2023.03.17.533092 (bioRxiv, 2023).

The target in assay [1] is SARS-CoV-2 spike glycoprotein (S) (SARS-CoV-2 (Wuhan), UniProt P0DTC2).
Assay [2] concerns the target SARS-CoV-2 Wuhan S RBD, biotinylated (SARS-CoV-2 (Wuhan), UniProt P0DTC2, biotin (biotinylated; site not stated)).

B1: ADAH15 (VHH)
VHH: QVQLQESGGGLVQAGGSLRLSCAASGTTYLAANMGWFRQAPGKEREFVAAITFFHNPTVYYADSVKGRFTISRDNAKNTVYLQMNSLKPEDTAVYYCAATVLVRDRIHFSHSIGIRYWGQGTQVTVSS
As to B1, the binding result in assay [1] and in assay [2] was “binds” each time.

B2: ADAH14 (VHH)
VHH: QVQLQESGGGLVQAGGSLRLSCAASGSYFFHALMGWFRQAPVKEREFVASITAVPGATYYRRCTDSVKGRFTISRDNAKNTVYLQMNSLKPEDTAVYYCALATHSNRHTPITYWGQGTQVTVSS
As for B2, the binding result in assay [1] and in assay [2] was “binds” in each case.
